Test results from patent US20200223906A1 (Adimab, published 2020).
Substitutions are numbered along the chain they refer to.

B1: ADI-18959 (antibody, V domains shown)
VH: QVQLVQSGAEVKKPGASVRVSCKVYGHTLSELSMHWVRQGPEGGLEWMGAFDHEDGEGIYPQKFQGRITMTADISTDTAHMELRSLRSEDTAVYYCATPTPVGATDFWGQGTLVTVSS
VL: DIRVTQSPSSLSASVGDRVTITCRASQSISSYLNWYQQKPGKAPKLLIYAASTLQRGGPSRFSGSGSGTDFTLSISSLQPEDFATYYCQQTYIIPYTFGQGTKLEIK
notes: full-length IgG from yeast; also called Antibody Number 310; Ab # 310
B2: ADI-18907 (antibody, V domains shown)
VH: QVQLVQSGPEVKKPGSSVKVSCKASGGTFSSYAITWVRQAPGQGLEWMGGIIPSFDRVDYSRNFKGRVTFTADKSANTAYMELTNVRSDDTAVYYCARGCCGAVAGFQHWGQGTGVTVSS
VL: DIVLTQTPATLSLSPGETATLSCRASQSVTTYLAWYQQKPGQAPRLLIYDASNRATGVPTRFSGSGSGTDFTLTISSLEPEDYAIYYCQQRTTGVTFGGGTKVEIK
notes: full-length IgG from yeast; also called Antibody Number 262; Ab # 262
B3: ADI-18901 (antibody, V domains shown)
VH: EVQLVESGAEVKRPGASVKISCKASEYAFTAHYLHWVRQAPDQGLEWMGWISPKSGGTNYAQKFHGRVSMTSDTSISTVYMELSSLTSDDTAVYYCARSSLVGASPNFDFWGQGTLVTVSS
VL: QSVLTQPPSVSAAPGQRVTISCSGSSSNIGNNYVSWYQQLPGTTPKVLIYDNNQRPSGIPDRFSGSKSGTSATLAISGLQTGDEAVYYCGTWDASLSAAMVFGGGTKLTVL
B4: ADI-18940 (antibody, V domains shown)
VH: QVQLVQSGAGVKKPGASVRVSCTASGYTFTDYFINWVRQAPGGGLEWMGWVNPLSGATRYAQNFAGRVTMTTDTSITTGYLDLRNLRLDDTAVYFCASQSSPYTPGAMDVWGQGTTVTVSS
VL: DIVMTQSPSSLSASVGDRVSITCRTSQTISGYISWYQKKPGKAPKLLIYAASNMYSGVPSRFSGSESGTDFTLTITSLQPEDFATYFCQLNSGALFTFGPGTKVDIK
notes: full-length IgG from yeast
B5: ADI-18910 (antibody, V domains shown)
VH: QVQLVQSGAEVKKPGSSVKVSCKASGGTFSSYAISWVRQAPGQGLEWMGGIIPMFDIVDYAQKFQGRVTITADESTNTAYMELTSLRSEDTAVYYCARTAALGPPGTIVGYMDVWGKGTTVTVSS
VL: DIVMTQSPLSLPVTPGEPASISCRSSQSLLQSNGYNYLDWYLQKPGQAPQLLIYLGSNRASGVPDKFSGSGSGTDFTLKISRVEAEDVGVYYCMQTLQTPWTFGQGTKVEIK
notes: full-length IgG from yeast; also called Antibody Number 265; Ab # 265
B6: ADI-18929 (antibody, V domains shown)
VH: QVQLVQSGGGLVKPGGSLRLSCAASGFTFNDYYMNWIRQAPGKGLEWVSYISSSGETKYYADSVKGRFTISRDNAKNSLYLEMNSLRVEDTAVYYCARDAVIVVGPVAVHYQYYADVWGKGTTVTVSS
VL: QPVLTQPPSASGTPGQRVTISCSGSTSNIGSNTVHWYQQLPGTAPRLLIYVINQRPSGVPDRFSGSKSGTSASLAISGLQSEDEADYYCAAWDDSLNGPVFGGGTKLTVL
B7: ADI-18905 (antibody, V domains shown)
VH: EVQLVESGPTLVKPSETLSLTCVVSGGSVYRSSNYWAWIRQPPGKGLEWIGSVYHSGNPYSNPSLQSRVSVSIDTSKNQFSLKLYSVTAADSAIYYCACKRADADDVDYVAGLTGFPWYFDVWGRGTLVTVSS
VL: EIVLTQSPSTLSASVGDRVTITCRASQSISSWLAWYQQKPGKTPKLLIYKASTLESGVPSRFSGSGSGTEFTLTISSLQPDDFATYYCQQYHVYFPLTFGGGTKVEIK
B8: ADI-18967 (antibody, V domains shown)
VH: QVQLVQSGAEVKKPGASVKVACKVSGSSLTELSIQWVRLPPGKRLEWLGAFDAEDGAPIYSPKFQGRVTMTEDRSTETAYMEVTSLRSEDTALYYCATPLPAGALDKWGQGTLVTVSS
VL: DIQMTQSPSSLSASVGDRVTISCRASQTISRYLNWYQVKPGTAPKLLIYAASSLQTGVPSRFSASGSGADFTLTISSLQPEDFATYHCQQTYIIPYTFGQGTKVDIK
notes: full-length IgG from yeast; also called Antibody Number 315; Ab # 315
B9: ADI-18894 (antibody, V domains shown)
VH: QVQLVQSGGGVVQPGRSLKHSCAASGFTFNNYAIHWVRQAPGKGLEWVAAISYDGSNEYYSNSVKGRFTISRDNSKYTLYLQMNSLRPEDTAVYYCARGASYYYVSSDLGYWGQGTLVTVSS
VL: QPVLTQPPSVSGAPGQRVTISCTGSSSNIGSGYDVHWYQQLPGTAPKVVIYGNINRPSGVPERFSGSKSGTSASLAITGLQAEDEADYYCQSYDSLSASWVFGGGTKLTVL
notes: full-length IgG from yeast; also called Antibody Number 249; Ab # 249
B10: ADI-18957 (antibody, V domains shown)
VH: EVQLLESGGGLVKPGESLRLSCAASGFTLSGYYMNWVRQAPGRGLEWVSSISGGSNYINYADSVKGRFTISRDNAKNSLYLQMNSLRVEDTAVYYCARVHVDLVTTIFGVDFDFWGQGTLVTVSS
VL: QSVLTQPPSVSGAPGQRVTISCTGSSSNIGAGYDVHWYQQLPGTAPKLLIYGNTNRPAGVPDRFSGSKSGSSASLAITGLQAEDEADYYCQSYDSSLSGAIFGGGTKLTVL
notes: full-length IgG from yeast
B11: ADI-18931 (antibody, V domains shown)
VH: EVQLVESGGGLQKPGRSLRLSCSASGFTFGDYAMSWFRQAPGKGLEWVGFIRSKAYVGTAEYAASVKGRFTISRDDSKSIAYLHMNSLKTEDTAVYYCTRDDILTGFYDRSYYYGIHVWGQGTTVTVSS
VL: EIVMTQSPVTLSVSPGERATLSCRASQSVNSNLAWYQKKPGQAPRLLIYSASTRATGVPARFSGSGSGTEFTLTVSSLQSEDFAVYYCQQYDNWPPYTFGQGTKVEIK
notes: full-length IgG from yeast; also called Antibody Number 285; Ab # 285
B12: ADI-18965 (antibody, V domains shown)
VH: QVQLVQSGAEVKKPGASVKISCKASGYPFSSYPMHWVRQAPGQRLEWMGWINVDNENTKYSWKFRGRVTITRDTSASTVYMELSSLISEDTAVYYCGRDWDGAIRVLDYWGQGTLVTVSS
VL: DIVMTQTPDSLAVSLGERATITCKSSQSVLFSSDNKNYLAWYQQKPGQPPKLLIYWASIRESGVPDRFGGSGSGTHFTLTITSVQAADVAVYYCQQYYGNFPTFGQGTRLEIK
B13: ADI-18884 (antibody, V domains shown)
VH: EVQLVESGAEMKKPGASVKVSCKASGYTFTNYAIHWVRQAPGQSLEWMGWINAGNGNTQYSQKFQGRVTFTRDTSASTVYMDLSSLRSEDTAVYYCARGQIVVIPRANFWFDPWGQGTLVTVSS
VL: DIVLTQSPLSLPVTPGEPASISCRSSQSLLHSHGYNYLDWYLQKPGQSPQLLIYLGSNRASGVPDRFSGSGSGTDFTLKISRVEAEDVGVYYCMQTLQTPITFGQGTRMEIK
notes: full-length IgG from yeast; also called Antibody Number 240; Ab # 240
B14: ADI-18956 (antibody, V domains shown)
VH: QVQLVQSGAELKKPGSSVKVSCKASADTFKSYAINWVRQAPGQGLEWMGEFIPIFGVSPSAQKFQGRVTITADRSTSTAYMELSSLKSDDSAIYYCATRLYTLGSPFDNWGQGTTVTVSS
VL: QPVLTQPRSVSGSPGQSVTISCTGTSSDVGDYDYVSWYQHLPGEVPKLIVYNVIKRPSGVPDRFSGSKSGNTASLTISGLQAEDEADYYCCSYAGRYIYVFGSGTKLTVL
notes: full-length IgG from yeast
B15: ADI-18925 (antibody, V domains shown)
VH: QVQLVESGGGVVQPGRSLRLSCAASGFPFSLYAMHWVRQAPGKGLEWVAFISYDGSNKYYADSVKGRFTISRDSSKNTLYLQMDSLTPEDTAVYYCAKPIVGPTTGYFDYWGPGTLVTVSS
VL: EIVLTQSPATLSLSPGERATLSCRASQSVSSYLAWYQQKPGQAPRLLIYDASNRATGIPARFSGSGSGTDFTLTISSLEPEDFAVYYCQQRSNWYTFGQGTKVEIK
B16: ADI-18962 (antibody, V domains shown)
VH: QVQLVQSGGGLVKPEGSLRLSCAASGFTFSSYSMNWVRQAPGKGLEWVSSISSSSSYIYYADSVKGRFTISRDNAKNSLYLQMNSLRAEDTAVYYCARVSTELGYYYMDVWGKGTTVTVSS
VL: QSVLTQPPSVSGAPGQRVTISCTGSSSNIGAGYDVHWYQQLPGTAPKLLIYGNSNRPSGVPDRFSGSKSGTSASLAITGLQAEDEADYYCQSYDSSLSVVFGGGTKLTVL
notes: full-length IgG from yeast
B17: ADI-18943 (antibody, V domains shown)
VH: QVQLQESGPGLVKPSETLSLTCSVSGASVTSREYYWGWIRQAPGKGLQWIASIHHSPFQSDGNPSLTSRVSSSVVTSKNQLALRLSSVTAADTAVYYCAGAFWEVWTGLYSPPFDFWGQGILVTVSS
VL: EIVMTQSPGTLSLSPGERATLSCWASQTVSSGYLAWYQQKPGQAPRLLIYGASTRATDIPDRFSGSGSGTGFTLTISRLEPEDLAVYYCQQYSSSPLTFGGGTKVEIK
notes: full-length IgG from yeast
B18: ADI-18944 (antibody, V domains shown)
VH: QVQLVQSGAEVKKPGASVKVSCKTSGYTFSNYGISWLRQAPGQGLEWMAWISPYNGNTKSAQRFQGRVIMTTDTSTRTAHMEVKSLRTDDTATYYCARDPAVDAIPMLDYWGQGTTVTVSS
VL: DIQVTQSPLSLPVTLGQPASISCRSSQSLVYTDGNTYLSWFQQRPGQSPRRLIYRVSHRDSGVPDRFTGSGSGTDFTLIIRRVEAEDVGVYYCMQGTHWPLTFGGGTKVEIK
notes: full-length IgG from yeast
B19: ADI-18949 (antibody, V domains shown)
VH: B18 VH with T116M
VL: B18 VL with D1E, Q3V, V4L
notes: full-length IgG from yeast
B20: ADI-18972 (antibody, V domains shown)
VH: B18 VH with T116L
VL: B18 VL with V4M, V109L
notes: full-length IgG from yeast; also called Antibody Number 320; Ab # 320

What was measured:
[1] = molecular target: T1, RSV F subtype A, furin-cleaved ectodomain stabilized in the prefusion conformation (DS-Cav1) (Respiratory syncytial virus subtype A, UniProt P03420 26-524); test: BLI, IgG on AHQ sensor, 100 nM antigen
T1 construct: extracellular domain; Trimeric soluble antigen; also called Prefusion subtype A

[2] = molecular target: RSV F protein of subtype B (18537) on recombinant mKate-RSV virus (Respiratory syncytial virus subtype B …, UniProt P13843 26-574); test: cell-based or functional assay
[3] = molecular target: RSV F protein of subtype A (strain A2) on recombinant mKate-RSV virus (Respiratory syncytial virus subtype A …, UniProt P03420 26-574); test: cell-based or functional assay
[4] = molecular target: T2, RSV F subtype B, furin-cleaved ectodomain stabilized in the prefusion conformation (DS-Cav1) (Respiratory syncytial virus subtype B); test: BLI, IgG on AHQ sensor, 100 nM antigen
T2 construct: extracellular domain; Trimeric soluble antigen; also called Prefusion subtype B

Row | Binder | Kd [1] | Neut IC50 (µg/ml) subtype B [2] | Neut IC50 (µg/ml) subtype A [3] | Kd [4]
1 | B1 | 4.68 nM | 2.26 µg/mL | 7.21 µg/mL | –
2 | B2 | – | > 10 µg/mL | 3.3 µg/mL | 0.204 nM
3 | B3 | – | 5.76 µg/mL | 5.65 µg/mL | –
4 | B4 | – | 0.063 µg/mL | 0.023 µg/mL | 1.56 nM
5 | B5 | – | 0.767 µg/mL | > 10 µg/mL | 10.6 nM
6 | B6 | – | 0.369 µg/mL | 0.261 µg/mL | –
7 | B7 | – | 3.68 µg/mL | 0.685 µg/mL | –
8 | B8 | 0.809 nM | 3.65 µg/mL | 6.74 µg/mL | –
9 | B9 | – | 0.123 µg/mL | 0.345 µg/mL | 0.327 nM
10 | B10 | – | 6.08 µg/mL | 1.34 µg/mL | 0.324 nM
11 | B11 | – | > 10 µg/mL | > 10 µg/mL | 0.488 nM
12 | B12 | – | 6.89 µg/mL | 3.02 µg/mL | –
13 | B13 | – | 0.239 µg/mL | 0.073 µg/mL | 0.204 nM
14 | B14 | – | > 10 µg/mL | > 10 µg/mL | 0.224 nM
15 | B15 | – | > 10 µg/mL | > 10 µg/mL | –
16 | B16 | – | > 10 µg/mL | 4.44 µg/mL | 22.8 nM
17 | B17 | – | 0.043 µg/mL | 0.027 µg/mL | 0.725 nM
18 | B18 | – | 0.074 µg/mL | 0.026 µg/mL | 0.337 nM
19 | B19 | – | 0.076 µg/mL | 0.04 µg/mL | 0.308 nM
20 | B20 | – | 0.107 µg/mL | 0.016 µg/mL | 0.368 nM
